From patent publication US20240301429A1

B1: NRP1 trap M (receptor)
chain: FRNDKCGDTIKIESPGYLTSPGYPHSYHPSEKCEWLIQAPDPYQRIMINFNPHFDLEDRDCKYDYVEVFDGENENGHFRGKFCGKIAPPPVVSSGPFLFIKFVSDYETHGAGFSIRYELFKRGPECSQNYTTPSGVIKSPGFPEKYPNSLECTYIVFAPKMSEIILEFESFDLEPDSNPPGGMFCRYDRLEIWDGFPDVGPHIGRYCGQKTPGRIRSSSGILSMVFYTDSAIAKEGFSANYSVLQSSVSEDFKCMEALGMESGEIHSDQITASSQYSTNWSAERSRLNYPENGWTPGEDSYREWIQVDLGLLRFVTAVGTQGAISKETKKKYYVKTYKIDVSSNGEDWITIKEGNKPVLFQGNTNPTDVVVAVFPKPLITRFVRIKPATWETGISMRFEVYGCRSGSKENLYFQG
B2: NRP1 trap Z (receptor)
chain: FRNDKCGDTIKIESPGYLTSPGYPHSYHPSEKCEWLIQAPDPYQRIMINFNPHFDLEDRDCKYDYVEVFDGENENGHFRGKFCGKIAPPPVVSSGPFLFIKFVSDYETHGAGFSIRYELFKRGPECSQNYTTPSGVIKSPGFPEKYPNSLECTYIVFAPKMSEIILEFESFDLEPDSNPPGGMFCRYDRLEIWDGFPDVGPHIGRYCGQKTPGRIRSSSGILSMVFYTDSAIAKEGFSANYSVLQSSVSEDFKCMEALGMESGEIHSDQITASSQYSTNWSAERSRLNYPENGWTPGKKSYREWIQVDLGLLRFVTAVGTQGAISKETKKKYYVKTYKIDVSSNGEDWITIKEGNKPVLFQGNTNPTDVVVAVFPKPLITRFVRIKPATWETGISMRFEVYGCKITDYPCSGMLGMVSGLISDSQITSSNQGDRNWMPENIRLVTSRSGWALPPAPHSYINEWLQIDLGEEKIVRGIIIQGGKHRENKVFMRKFKIGYSNNGSDWKMIMDDSKRKAKSFEGNNNYDTPELRTFPALSTRFIRIYPERATHGGLGLRMELLGCEVEAPTAGPTTPNGNLVDECDDDQANCHSGTGDDFQLTGGTTVLATEKPTVIDSTIQSEFPTYGFNCEFGWGSHKTFCHWEHDNHVQLKWSVLTSKTGPIQDHTGDGNFIYSQADENQKGKVARLVSPVVYSQNSAHCMTFWYHMSGSHVGTLRVKLRYQKPEEYDQLVWMAIGHQGDHWKEGRVLLHKSLKLYQVIFEGEIGKGNLGGIAVDDISINNHISQEDCAKPADLDKKNPEIKIDETGSTPGYEGEGEGDKNISRKPGNVLKTLDPRSGSKENLYFQG
B3: NRP1 trap AB (receptor)
chain: FRNDKCGDTIKIESPGYLTSPGYPHSYHPSEKCEWLIQAPDPYQRIMINFNPHFDLEDRDCKYDYVEVFDGENENGHFRGKFCGKIAPPPVVSSGPFLFIKFVSDYETHGAGFSIRYELFKRGPECSQNYTTPSGVIKSPGFPEKYPNSLECTYIVFAPKMSEIILEFESFDLEPDSNPPGGMFCRYDRLEIWDGFPDVGPHIGRYCGQKTPGRIRSSSGILSMVFYTDSAIAKEGFSANYSVLQSSVSEDFKCMEALGMESGEIHSDQITASSQYSTNWSAERSRLNYPENGWTPGEDSYREWIQVDLGLLRFVTAVGTQGAIAKKTKKKYYVKTYKIDVSSNGEDWITIKEGNKPVLFQGNTNPTDVVVAVFPKPLITRFVRIKPATWETGISMRFEVYGCKITDYPCSGMLGMVSGLISDSQITSSNQGDRNWMPENIRLVTSRSGWALPPAPHSYINEWLQIDLGEEKIVRGIIIQGGKHRENKVFMRKFKIGYSNNGSDWKMIMDDSKRKAKSFEGNNNYDTPELRTFPALSTRFIRIYPERATHGGLGLRMELLGCEVEAPTAGPTTPNGNLVDECDDDQANCHSGTGDDFQLTGGTTVLATEKPTVIDSTIQSEFPTYGFNCEFGWGSHKTFCHWEHDNHVQLKWSVLTSKTGPIQDHTGDGNFIYSQADENQKGKVARLVSPVVYSQNSAHCMTFWYHMSGSHVGTLRVKLRYQKPEEYDQLVWMAIGHQGDHWKEGRVLLHKSLKLYQVIFEGEIGKGNLGGIAVDDISINNHISQEDCAKPADLDKKNPEIKIDETGSTPGYEGEGEGDKNISRKPGNVLKTLDPRSGSKENLYFQG

Molecular target: AP-VEGF165 (human) (UniProt P15692)
Test: saturation binding, trap coated on plate, AP-VEGF165 titrated, AP chemiluminescence

AP-VEGF165 (human), sequence (P15692 other isoform, or with tags, fused parts or gaps): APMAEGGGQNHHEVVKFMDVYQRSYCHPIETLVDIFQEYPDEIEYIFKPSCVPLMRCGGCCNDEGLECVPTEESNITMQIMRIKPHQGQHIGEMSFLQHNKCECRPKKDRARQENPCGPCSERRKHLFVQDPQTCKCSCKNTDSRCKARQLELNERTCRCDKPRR

Row | Binder | Kd [nM]
1 | B1 | 20.1
2 | B2 | 67
3 | B3 | 29.5
